Data as given in patent publication US6960658B1, “Maspin transcriptional regulatory sequences and uses thereof” (Dana-Farber Cancer Institute, Inc., priority 1996, dated 2005).

Key:
[1] = system: maspin HRE element (pBLAp1/HRE reporter) in CF3 and LNCaP cells; test: CAT assay of pBLAp1/HRE construct with or without androgen (R1881) treatment; assay type: cell-based, human; conditions: 50 nM R1881 vs vehicle added after transfection
Method: For construction of pBLAp1/HRE, pairs of OL8 and OL9 oligos were annealed as described above. The annealed product was phosphorylated by T4 polynucleotide kinase, and ligated to the BamHI site of pBLAp1 (pBLCAT2 containing three copies of Ap1) to generate pBLAp1/HRE (FIG. 12).
Cells were plated at 1 ×106/p100 and grown to about 75% confluence. SNA was transfected by the method of modified DEAE-Dextran (Promega, Inc., Madison, Wis.). The amounts of DNAs used were: 10 μg reporter plasmid, except for PCMVCAT in which only 2 μg of DNA was used. 1 μg of pCMVβgal was used as an internal control for transfection efficiency. For the androgen treatment, 50 nM methyltrienolone.(R1881, from Du Pont-New England Nuclear, Inc., Boston, Mass.) or vehicle was added to the cultures after transfection. […] The β-galactosidase activity in the extracts was calculated as described by Swisshelm et al. (Cell Growth Differ. 5:133, 1994). Twenty units of extracts (calculated by β-galactosidase activity) were used for each CAT assay except for transfection with pCMVCAT positive control in which only 10 units of extracts were used because of high activity. […] Quantitation of acetylated […] and nonacetylated chloramphenicol was performed by cutting out the appropriate regions of the silica gel TLC plate and counting in BioFluor (DuPont, Wilmington, Del.). […]

tumor cells [2] = conditions: Sager et al. 1995; cited from earlier work
tumor cells [3] = conditions: expressed in tumor transfectants or added as recombinant maspin; Sheng et al. 1994; cited from earlier work

Molecule	effect of R1881 treatment on HRE-mediated inhibition of promoter (CAT) activity [1]	mobility of tumor cells (tumor cells [2])	invasion in a Boyden chamber assay (tumor cells [3])
C[C@]1(O)CC[C@H]2[C@@H]3CCC4=CC(=O)CCC4=C3C=C[C@@]21C [R1881, methyltrienolone]	Little difference in inhibition	–	–
Maspin: a serpin expressed in normal human mammary epithelial cells (protein, UniProt P36952 1-375, looked up) Serpin B5: MDALQLANSAFAVDLFKQLCEKEPLGNVLFSPICLSTSLSLAQVGAKGDTANEIGQVLHFENVKDVPFGFQTVTSDVNKLSSFYSLKLIKRLYVDKSLNLSTEFISSTKRPYAKELETVDFKDKLEETKGQINNSIKDLTDGHFENILADNSVNDQTKILVVNAAYFVGKWMKKFSESETKECPFRVNKTDTKPVQMMNMEATFCMGNIDSINCKIIELPFQNKHLSMFILLPKDVEDESTGLEKIEKQLNSESLSQWTNPSTMANAKVKLSIPKFKVEKMIDPKACLENLGLKHIFSEDTSDFSGMSETKGVALSNVIHKVCLEITEDGGDSIEVPGARILQHKDELNADHPFIYIIRHNKTRNIIFFGKFCSP	–	inhibit mobility of tumor cells	inhibits invasion
